# Test results published in US20200157212A1 (Pfizer, published 2020).
# T1: Cynomolgus monkey ROBO2 overexpressed on HEK293 cells (cynomolgus monkey, UniProt Q9HCK4 22-1378 (human entry))
# T1 chain: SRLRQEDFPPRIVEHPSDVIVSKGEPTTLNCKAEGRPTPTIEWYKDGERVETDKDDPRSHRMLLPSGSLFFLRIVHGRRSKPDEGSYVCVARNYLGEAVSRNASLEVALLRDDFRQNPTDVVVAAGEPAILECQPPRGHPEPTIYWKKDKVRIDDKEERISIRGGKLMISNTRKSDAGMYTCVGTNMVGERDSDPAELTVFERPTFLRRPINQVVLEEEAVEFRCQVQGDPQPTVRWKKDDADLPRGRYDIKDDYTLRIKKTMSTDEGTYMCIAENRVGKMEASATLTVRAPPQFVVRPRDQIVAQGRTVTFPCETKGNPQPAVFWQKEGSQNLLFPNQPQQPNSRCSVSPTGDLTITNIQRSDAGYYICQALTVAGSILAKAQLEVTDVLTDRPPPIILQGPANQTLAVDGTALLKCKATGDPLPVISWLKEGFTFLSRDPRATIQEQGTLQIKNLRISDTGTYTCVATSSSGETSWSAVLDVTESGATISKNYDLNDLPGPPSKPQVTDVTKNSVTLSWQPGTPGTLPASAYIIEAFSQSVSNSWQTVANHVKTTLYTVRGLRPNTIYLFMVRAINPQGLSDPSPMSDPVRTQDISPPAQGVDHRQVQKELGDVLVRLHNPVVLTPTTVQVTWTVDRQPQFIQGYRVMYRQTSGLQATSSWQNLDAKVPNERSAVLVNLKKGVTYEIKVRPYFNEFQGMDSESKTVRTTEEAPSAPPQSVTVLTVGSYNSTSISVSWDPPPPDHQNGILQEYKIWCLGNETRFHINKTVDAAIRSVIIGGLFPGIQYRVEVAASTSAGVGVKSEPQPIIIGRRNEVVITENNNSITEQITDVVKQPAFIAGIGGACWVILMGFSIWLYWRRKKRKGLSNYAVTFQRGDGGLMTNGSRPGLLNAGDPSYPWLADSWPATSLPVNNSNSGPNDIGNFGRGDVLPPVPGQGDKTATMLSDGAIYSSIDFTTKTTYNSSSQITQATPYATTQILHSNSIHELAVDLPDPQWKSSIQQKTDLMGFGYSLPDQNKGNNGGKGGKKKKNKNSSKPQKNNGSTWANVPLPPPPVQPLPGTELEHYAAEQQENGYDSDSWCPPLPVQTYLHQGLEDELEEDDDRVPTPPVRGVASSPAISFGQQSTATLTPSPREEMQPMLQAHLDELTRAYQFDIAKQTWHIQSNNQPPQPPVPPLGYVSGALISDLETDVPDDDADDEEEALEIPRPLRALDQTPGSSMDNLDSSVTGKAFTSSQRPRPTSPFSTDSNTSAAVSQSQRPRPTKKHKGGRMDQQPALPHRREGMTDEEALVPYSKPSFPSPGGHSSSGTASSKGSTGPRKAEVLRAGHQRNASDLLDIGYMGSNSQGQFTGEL
# What was measured:
# [1] = target: T1, Cynomolgus monkey ROBO2 overexpressed …; experiment: flow cytometry, HEK293 cells
# Protocol: (§1) Using flow cytometry, improvement in the binding EC₅₀ to human ROBO2 relative to the parental 93H2 was evaluated. Starting at 6.7 nM, 11-point, 3-fold dilution series were made for each antibody and used to stain HEK293 overexpressing human ROBO2 as described above for the ROBO2 fold selectivity (Example 2). […] In addition to measuring improved binding to human ROBO2, it was important to ensure that high affinity binding to both cynomolgus monkey ROBO2 and rat ROBO2 was maintained. Using HEK293 cells overexpressing either cynomolgus monkey ROBO2 or rat ROBO2, the relative dose-dependent binding of 93H2, Abcs25 and Abcs35 was evaluated as described above. High affinity binding to both cynomolgus monkey and rat ROBO2 was maintained in Abcs25 and Abcs35 (Table 4). […] Briefly, Abcs35 was immobilized to 300 resonance units (RU) on a CM5 chip. Association of ROBO2 Ig1-Ig2-His (ROBO2) was measured over 5 minutes and dissociation was followed for a period of 10 minutes.
# (§2) The binding profile of Abcs35-J compared to Abcs35 was determined for human ROBO2, orthologs from cynomolgus monkey and rat, human ROBO1 and specificity for the RSK epitope from ROBO2 but not KSR from ROBO1. Binding was assessed by flow cytometry as described in Examples 2 (homolog specificity), Example 3 (ortholog reactivity) and Example 5 (RSK vs KSR epitope specificity). […] Binding of the antibodies was detected using a secondary fluorochrome conjugated anti-human IgG F(ab′)₂ antibody and samples analyzed on a Fortessa cytometer (BD Biosciences).
# [2] = target: T2, Human ROBO1 RSK mutant overexpressed on HEK293 cells (human, UniProt Q9Y6N7 26-1651); experiment: flow cytometry, HEK293 cells
# T2 construct: K137R and R139K already in the entry; also called ROBO1-RSK cells
# T2 sequence (Q9Y6N7 other isoform, or with tags, fused parts or gaps mutant limits assumed): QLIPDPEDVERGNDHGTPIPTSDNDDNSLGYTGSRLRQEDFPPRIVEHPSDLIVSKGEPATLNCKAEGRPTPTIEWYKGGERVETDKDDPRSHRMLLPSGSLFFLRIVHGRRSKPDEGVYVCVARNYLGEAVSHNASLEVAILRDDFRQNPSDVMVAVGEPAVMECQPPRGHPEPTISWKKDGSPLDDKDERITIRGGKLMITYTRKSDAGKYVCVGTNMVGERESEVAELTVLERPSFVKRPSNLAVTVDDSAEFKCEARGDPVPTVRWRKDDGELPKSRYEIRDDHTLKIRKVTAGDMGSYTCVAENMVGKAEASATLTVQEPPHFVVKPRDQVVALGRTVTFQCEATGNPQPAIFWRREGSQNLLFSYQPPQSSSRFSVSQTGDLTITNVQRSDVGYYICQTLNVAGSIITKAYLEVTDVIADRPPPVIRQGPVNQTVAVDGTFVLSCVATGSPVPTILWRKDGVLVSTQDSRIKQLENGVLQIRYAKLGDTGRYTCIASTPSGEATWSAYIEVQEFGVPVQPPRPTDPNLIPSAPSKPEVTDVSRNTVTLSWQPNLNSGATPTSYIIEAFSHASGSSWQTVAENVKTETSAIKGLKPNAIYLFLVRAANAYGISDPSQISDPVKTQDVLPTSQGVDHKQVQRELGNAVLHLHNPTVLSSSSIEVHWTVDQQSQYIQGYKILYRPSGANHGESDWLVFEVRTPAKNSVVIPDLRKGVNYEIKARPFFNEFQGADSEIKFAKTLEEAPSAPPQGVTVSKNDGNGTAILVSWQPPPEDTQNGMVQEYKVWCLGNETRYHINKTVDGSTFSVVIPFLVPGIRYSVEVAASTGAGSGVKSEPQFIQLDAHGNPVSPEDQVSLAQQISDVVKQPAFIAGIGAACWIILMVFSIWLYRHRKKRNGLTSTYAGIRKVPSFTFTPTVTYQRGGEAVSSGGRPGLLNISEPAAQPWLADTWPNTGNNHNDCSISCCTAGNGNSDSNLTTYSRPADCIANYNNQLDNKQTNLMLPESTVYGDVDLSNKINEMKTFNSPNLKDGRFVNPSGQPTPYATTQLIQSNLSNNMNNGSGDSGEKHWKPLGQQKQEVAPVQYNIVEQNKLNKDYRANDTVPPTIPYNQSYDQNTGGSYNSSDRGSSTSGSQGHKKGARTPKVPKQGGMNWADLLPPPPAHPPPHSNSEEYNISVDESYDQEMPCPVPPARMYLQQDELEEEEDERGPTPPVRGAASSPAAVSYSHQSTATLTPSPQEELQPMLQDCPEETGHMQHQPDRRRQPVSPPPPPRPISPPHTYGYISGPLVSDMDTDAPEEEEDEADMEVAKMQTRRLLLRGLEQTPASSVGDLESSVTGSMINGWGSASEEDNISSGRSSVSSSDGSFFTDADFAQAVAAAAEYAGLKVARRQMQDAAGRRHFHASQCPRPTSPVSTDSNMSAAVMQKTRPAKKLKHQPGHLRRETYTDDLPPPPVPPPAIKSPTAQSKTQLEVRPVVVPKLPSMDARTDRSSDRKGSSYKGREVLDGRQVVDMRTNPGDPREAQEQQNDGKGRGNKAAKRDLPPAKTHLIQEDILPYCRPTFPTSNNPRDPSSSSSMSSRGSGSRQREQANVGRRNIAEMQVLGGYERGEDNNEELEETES
# Protocol: as §1, §2
Binder,EC50 [1],EC50 [2]
"Abcs35 (antibody, human IgG1, kappa, fully human IgG1; VH of Ab96 with VL of Ab123) heavy: EVQLVQSGAEVKKPGASVKVSCKASGYTFTGYYMHWVRQAPGQGLEWMGWINPKNGDTEFPQKFQGRVTMTRDTSITTAYMDLSRLRSDDTAVYYCARESGDDAFDIWGQGTMVTVSSASTKGPSVFPLAPSSKSTSGGTAALGCLVKDYFPEPVTVSWNSGALTSGVHTFPAVLQSSGLYSLSSVVTVPSSSLGTQTYICNVNHKPSNTKVDKKVEPKSCDKTHTCPPCPAPEAAGAPSVFLFPPKPKDTLMISRTPEVTCVVVDVSHEDPEVKFNWYVDGVEVHNAKTKPREEQYNSTYRVVSVLTVLHQDWLNGKEYKCKVSNKALPAPIEKTISKAKGQPREPQVYTLPPSREEMTKNQVSLTCLVKGFYPSDIAVEWESNGQPENNYKTTPPVLDSDGSFFLYSKLTVDKSRWQQGNVFSCSVMHEALHNHYTQKSLSLSPGK light: DIVMTQSPSSLSASVGDRVTITCRASQSISSYLNWYQQKPGKAPKLLIYAASSLQSGVPSRFSGSGSGTDFTLTISSLQPEDFATYYCQQSVGLFFGGGTKVEIKRTVAAPSVFIFPPSDEQLKSGTASVVCLLNNFYPREAKVQWKVDNALQSGNSQESVTEQDSKDSTYSLSSTLTLSKADYEKHKVYACEVTHQGLSSPVTKSFNRGEC",0.111 nM,0.077 nM
"Abcs35-J (antibody, human IgG1, kappa, germlined variant of Abcs35; also called ABCS-J) heavy: EVQLVQSGAEVKKPGASVKVSCKASGYTFTGYYMHWVRQAPGQGLEWMGWINPKNGDTEFPQKFQGRVTMTRDTSITTAYMELSRLRSDDTAVYYCARESGDDAFDIWGQGTMVTVSSASTKGPSVFPLAPSSKSTSGGTAALGCLVKDYFPEPVTVSWNSGALTSGVHTFPAVLQSSGLYSLSSVVTVPSSSLGTQTYICNVNHKPSNTKVDKKVEPKSCDKTHTCPPCPAPEAAGAPSVFLFPPKPKDTLMISRTPEVTCVVVDVSHEDPEVKFNWYVDGVEVHNAKTKPREEQYNSTYRVVSVLTVLHQDWLNGKEYKCKVSNKALPAPIEKTISKAKGQPREPQVYTLPPSREEMTKNQVSLTCLVKGFYPSDIAVEWESNGQPENNYKTTPPVLDSDGSFFLYSKLTVDKSRWQQGNVFSCSVMHEALHNHYTQKSLSLSPGK light: not shown",0.099 nM,0.079 nM
